Assay results taken from article PMC8419023 (Structure (London, England : 1993), 2021).
Where two headings read alike, the source gives them in different places. No end group written: not given here.

Columns and labels:
CDK2-cyclin A^1−432 = CDK2-cyclin A^1−432 (human, UniProt P24941 1-298; P20248 1-432); assay: pull-down
CDK2-cyclin A^173−432 [1] = biological target: T1, CDK2-cyclin A^173−432 (human, UniProt P24941 1-298; P20248 173-432); assay: ITC
CDK2-cyclin A^173−432 [2] = biological target: T1, CDK2-cyclin A^173−432; assay: fluorescence polarisation
CDK2-cyclin A^173−432 [3] = biological target: T1, CDK2-cyclin A^173−432; assay: fluorescence polarisation; remark: listed apart in the source
CDK2-cyclin A^173−432 [4] = biological target: T1, CDK2-cyclin A^173−432; assay: fluorescence polarisation; remark: listed apart in the source

| binding result (CDK2-cyclin A^1−432) | Binder | other results |
| --- | --- | --- |
| binds | GST-Skp2^1−85 (domain or fragment) MHRKHLQEIPDLSSNVATSFTWGWDSSKTSELLSGMGVSALEKEEPDSENIPQELLSNLGHPESPPRKRLKSKGSDKDFVIVRRP |  |
| binds | MHRKHLQEIPDLSSNVATSFTWGWDSSKTSELLSGMGVSALEK (domain or fragment) [GST-Skp2^1−43] |  |
| binds | GST-Skp2^1−94 (domain or fragment) MHRKHLQEIPDLSSNVATSFTWGWDSSKTSELLSGMGVSALEKEEPDSENIPQELLSNLGHPESPPRKRLKSKGSDKDFVIVRRPKLNRENFPG |  |

The next lines start with the binder.

| Binder | binding result (CDK2-cyclin A^1−432) | other results |
| --- | --- | --- |
| GST-Skp2^1−64 (domain or fragment) MHRKHLQEIPDLSSNVATSFTWGWDSSKTSELLSGMGVSALEKEEPDSENIPQELLSNLGHPES | binds |  |
| Skp2^17−85 (domain or fragment) ATSFTWGWDSSKTSELLSGMGVSALEKEEPDSENIPQELLSNLGHPESPPRKRLKSKGSDKDFVIVRRP |  | Kd (CDK2-cyclin A^173−432 [1]): 0.496 µM; IC50 (CDK2-cyclin A^173−432 [2]): 13.4 µM; IC50 (CDK2-cyclin A^173−432 [3]): 5.1 µM |
| SACRNLFGPV-NH2 (not fully specified (N-terminus)) [FITC-p27^27−36 peptide] |  | Kd (CDK2-cyclin A^173−432 [4]): 2.1 µM |
| GST-Skp2^1−53 (domain or fragment) MHRKHLQEIPDLSSNVATSFTWGWDSSKTSELLSGMGVSALEKEEPDSENIPQ | binds |  |
| GST-Skp2^1−74 (domain or fragment) MHRKHLQEIPDLSSNVATSFTWGWDSSKTSELLSGMGVSALEKEEPDSENIPQELLSNLGHPESPPRKRLKSKG | binds |  |
